Experimental data from paper PMC8857464.

Substrate: C[C@H](N)C(=O)O
Assay: purified protein
Conditions: nonoxidized enzyme (no H2O2), amino acid activation, 2 mM ATP, 2 mM PPi, 10 mM MgCl2, pH 7.2, 37 °C

B1: AlaRS (Escherichia coli K-12) (protein)
chain: SKSTAEIRQAFLDFFHSKGHQVVASSSLVPHNDPTLLFTNAGMNQFKDVFLGLDKRNYSRATTSQRCVRAGGKHNDLENVGYTARHHTFFEMLGNFSFGDYFKHDAIQFAWELLTSEKWFALPKERLWVTVYESDDEAYEIWEKEVGIPRERIIRIGDNKGAPYASDNFWQMGDTGPCGPCTEIFYDHGDHIWGGPPGSPEEDGDRYIEIWNIVFMQFNRQADGTMEPLPKPSVDTGMGLERIAAVLQHVNSNYDIDLFRTLIQAVAKVTGATDLSNKSLRVIADHIRSCAFLIADGVMPSNENRGYVLRRIIRRAVRHGNMLGAKETFFYKLVGPLIDVMGSAGEDLKRQQAQVEQVLKTEEEQFARTLERGLALLDEELAKLSGDTLDGETAFRLYDTYGFPVDLTADVCRERNIKVDEAGFEAAMEEQRRRAREASGFGADYNAMIRVDSASEFKGYDHLELNGKVTALFVDGKAVDAINAGQEAVVVLDQTPFYAESGGQVGDKGELKGANFSFAVEDTQKYGQAIGHIGKLAAGSLKVGDAVQADVDEARRARIRLNHSATHLMHAALRQVLGTHVSQKGSLVNDKVLRFDFSHNEAMKPEEIRAVEDLVNTQIRRNLPIETNIMDLEAAKAKGAMALFGEKYDERVRVLSMGDFSTELCGGTHASRTGDIGLFRIISESGTAAGVRRIEAVTGEGAIATVHADSDRLSEVAHLLKGDSNNLADKVRSVLERTRQLEKELQQLKEQAAAQESANLSSKAIDVNGVKLLVSELSGVEPKMLRTMVDDLKNQLGSTIIVLATVVEGKVSLIAGVSKDVTDRVKAGELIGMVAQQVGGKGGGRPDMAQAGGTDAAALPAALASVKGWVSAKLQ
  Km: 329 ± 84.6 µM
  kcat: 16 s⁻¹
  kcat/Km: 48300 M⁻¹ s⁻¹
